# Assay results from patent US20100129288A1.
# B1: OLF-Fc (Fc-fusion protein containing the olfactomedin domain of gliomedin) (Fc fusion, part only; not given: human Fc, part only)
# chain, part: NDDTLVGRADEKVNERHSPQTEPMITSIGNPAQVLKVKETFGTWLRESANRSDDRIWVTEHFSGIMVKEFEDLPALLNSSFTLLHLPHYFHGCGHAVYNNSLYYHKGGSNTIVRFEFGKETPQTLKLEDALYFDRKYLFANSKTYFNIAVDEKGLWIIYASSVDGSSILVAQLDERTFSVLRHINTTYPKSKAGNAFIAQGILYVTDTKDTRVTFAFDLLRGKQINANFGLRMSQSVLAMLSYNMRDQHLYSWEDGHLMLYPVHFSSTAPS
# Biological target: neurofascin on purified rat DRG neurons (rat) (UniProt P97685)
# Test: cell-based or functional assay
# Chain of UniProt P97685 (P97685 25-1240, form in doubt): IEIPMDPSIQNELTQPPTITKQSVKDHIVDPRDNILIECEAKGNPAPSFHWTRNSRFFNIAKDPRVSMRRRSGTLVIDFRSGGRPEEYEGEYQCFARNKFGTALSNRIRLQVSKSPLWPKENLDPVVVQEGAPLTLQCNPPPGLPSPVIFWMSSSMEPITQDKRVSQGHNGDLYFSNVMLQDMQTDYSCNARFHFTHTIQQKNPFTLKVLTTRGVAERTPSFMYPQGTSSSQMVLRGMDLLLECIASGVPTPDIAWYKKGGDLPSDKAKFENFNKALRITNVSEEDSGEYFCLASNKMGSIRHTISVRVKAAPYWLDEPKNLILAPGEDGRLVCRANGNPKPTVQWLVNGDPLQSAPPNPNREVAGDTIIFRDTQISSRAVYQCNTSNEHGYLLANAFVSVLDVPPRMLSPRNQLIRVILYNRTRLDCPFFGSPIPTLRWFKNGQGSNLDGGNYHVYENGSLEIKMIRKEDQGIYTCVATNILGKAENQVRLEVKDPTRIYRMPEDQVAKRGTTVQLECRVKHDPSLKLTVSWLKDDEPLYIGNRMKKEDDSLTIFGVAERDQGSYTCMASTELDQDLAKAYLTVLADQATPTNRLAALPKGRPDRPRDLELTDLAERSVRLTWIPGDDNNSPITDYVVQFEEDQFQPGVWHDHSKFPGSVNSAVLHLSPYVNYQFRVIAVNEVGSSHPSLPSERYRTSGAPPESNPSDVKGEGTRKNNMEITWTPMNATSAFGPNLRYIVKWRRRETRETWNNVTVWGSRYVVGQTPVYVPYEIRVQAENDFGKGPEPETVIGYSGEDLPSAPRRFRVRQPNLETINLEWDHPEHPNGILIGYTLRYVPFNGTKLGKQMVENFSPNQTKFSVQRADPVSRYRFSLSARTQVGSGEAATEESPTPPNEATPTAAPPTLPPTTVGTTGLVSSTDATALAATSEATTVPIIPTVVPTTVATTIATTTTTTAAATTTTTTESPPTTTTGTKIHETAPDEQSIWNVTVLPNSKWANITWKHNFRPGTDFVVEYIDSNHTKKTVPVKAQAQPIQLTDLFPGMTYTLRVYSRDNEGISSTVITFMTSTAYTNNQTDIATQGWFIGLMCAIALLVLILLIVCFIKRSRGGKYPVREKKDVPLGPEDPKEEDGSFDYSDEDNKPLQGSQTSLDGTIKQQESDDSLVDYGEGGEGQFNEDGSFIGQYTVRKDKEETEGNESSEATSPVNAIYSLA
binder,measurement,value
B1,OLF-Fc clusters co-localized with neurofascin clusters,96%
